Reference: patent US8147838B2, “Peptide” (priority 2005, dated 2012)

Each sequence was assayed against MHC class I allele A*0101 (A1) (Homo sapiens, UniProt P04439, A114D/A174V/A182V/D101N/D185E/E176A/E190D/L180R/Q94H/R68K/S129P/T187R/V100A/V91M/W191G) (assay: iTopia peptide binding assay, A*0101). Conditions: percent of positive control peptide binding; peptide at 1.11×10^−5M.
Experimental: (§1) The 9 mers were tested for Peptide Binding, Off Rate and Affinity using iTopia Epitope Discovery System in accordance with the manufacturer's instructions. Briefly, 96 well microtitre plates coated with MHC molecules representing different MHC alleles are used to identify candidate peptides. […] Determinations are performed in duplicate using an ELISA plate reader and included allele specific positive controls.
(§2) i) Peptide Binding—This assay measures the ability of individual peptides to bind to the MHC molecules under standardized optimal binding conditions. The assay is performed for all the test peptides across the selected MHC alleles. The test peptides identified as “binders” are characterized further in terms of affinity and dissociation experiments.
(§3) Following a period of binding under optimal conditions, excess antibody is removed and a measurement of total fluorescence taken (D).
(§4) The binding of the test peptides to the MHC molecules was performed at 1.11×10^−5M of peptide under optimal, standardised test conditions. A control peptide was run in parallel on the same plate and at the same concentration as the test peptides.
(§5) The level of binding is expressed as a percent of positive control peptide binding for each allele.

Sequence | Peptide binding, MHC Class I Molecule A*0101
AALLAGRAL [Peptide 101] | 1 % of control
AALNLSGSR [Peptide 61] | 3 % of control
ACRDHMEGY [Peptide 196] | 3 % of control
ADMVTWLKE [Peptide 152] | 0 % of control
AELQGLPHI [Peptide 140] | 0 % of control
AFEHLPSLR [Peptide 69] | 1 % of control
AFSGSNASV [Peptide 81] | 2 % of control
AGAFEHLPS [Peptide 68] | 6 % of control
AGRALQGLR [Peptide 103] | 0 % of control
ASAVSAQPP [Peptide 25] | 2 % of control
CAYPEKMRN [Peptide 162] | 0 % of control
CSRGPAAGD [Peptide 3] | 0 % of control
DCDPILPPS [Peptide 172] | 0 % of control
DCHMADMVT [Peptide 150] | 0 % of control
DEVRAGAFE [Peptide 66] | 6 % of control
DLDCDPILP [Peptide 171] | 0 % of control
DNALKVLHN [Peptide 134] | 1 % of control

These sequences were tested against MHC class I allele B*0702 (B7) (Homo sapiens, UniProt P01889) (assay: iTopia peptide binding assay, B*0702). Conditions: percent of positive control peptide binding; peptide at 1.11×10^−5M.
Experimental: as §1, §2, §3, §4, §5

Sequence | Peptide binding, MHC Class I Molecule B*0702
AALLAGRAL [Peptide 101] | 59 % of control
AALNLSGSR [Peptide 61] | 3 % of control
ACRDHMEGY [Peptide 196] | 7 % of control
ADMVTWLKE [Peptide 152] | 8 % of control
AELQGLPHI [Peptide 140] | 0 % of control
AFEHLPSLR [Peptide 69] | 0 % of control
AFSGSNASV [Peptide 81] | 14 % of control
AGAFEHLPS [Peptide 68] | 7 % of control
AGRALQGLR [Peptide 103] | 1 % of control
ASAVSAQPP [Peptide 25] | 0 % of control
CAYPEKMRN [Peptide 162] | 3 % of control
CSRGPAAGD [Peptide 3] | 3 % of control
DCDPILPPS [Peptide 172] | 0 % of control
DCHMADMVT [Peptide 150] | 5 % of control
DEVRAGAFE [Peptide 66] | 12 % of control
DLDCDPILP [Peptide 171] | 3 % of control
DNALKVLHN [Peptide 134] | 0 % of control

Each sequence was assayed against MHC class I allele A*0301 (A3) (Homo sapiens, UniProt P04439) (assay: iTopia peptide binding assay, A*0301). Conditions: percent of positive control peptide binding; peptide at 1.11×10^−5M.
Experimental: as §1, §2, §3, §4, §5

Sequence | Peptide binding, MHC Class I Molecule A*0301
AALLAGRAL [Peptide 101] | 0 % of control
AALNLSGSR [Peptide 61] | 13 % of control
ACRDHMEGY [Peptide 196] | 4 % of control
ADMVTWLKE [Peptide 152] | 4 % of control
AELQGLPHI [Peptide 140] | 1 % of control
AFEHLPSLR [Peptide 69] | 11 % of control
AFSGSNASV [Peptide 81] | 2 % of control
AGAFEHLPS [Peptide 68] | 3 % of control
AGRALQGLR [Peptide 103] | 2 % of control
ASAVSAQPP [Peptide 25] | 0 % of control
CAYPEKMRN [Peptide 162] | 4 % of control
CSRGPAAGD [Peptide 3] | 5 % of control
DCDPILPPS [Peptide 172] | 3 % of control
DCHMADMVT [Peptide 150] | 3 % of control
DEVRAGAFE [Peptide 66] | 7 % of control
DLDCDPILP [Peptide 171] | 4 % of control
DNALKVLHN [Peptide 134] | 0 % of control

The sequences below were run against MHC class I allele A*0201 (A2) (Homo sapiens, UniProt P04439, D140Y/D185E/D98H/E176V/E277Q/G131W/G231S/I119V/I121R/I166T/I218V/L300P/L318F/N151K/N90K/P208A/P217A/Q86G/Q94H/R138H/R169H/T345S) (assay: iTopia peptide binding assay, A*0201). Conditions: percent of positive control peptide binding; peptide at 1.11×10^−5M.
Experimental: as §1, §2, §3, §4, §5

Sequence | Peptide binding, MHC Class I Molecule A*0201
AALLAGRAL [Peptide 101] | 38 % of control
AALNLSGSR [Peptide 61] | 6 % of control
ACRDHMEGY [Peptide 196] | 8 % of control
ADMVTWLKE [Peptide 152] | 6 % of control
AELQGLPHI [Peptide 140] | 9 % of control
AFEHLPSLR [Peptide 69] | 11 % of control
AFSGSNASV [Peptide 81] | 55 % of control
AGAFEHLPS [Peptide 68] | 10 % of control
AGRALQGLR [Peptide 103] | 2 % of control
ASAVSAQPP [Peptide 25] | 5 % of control
CAYPEKMRN [Peptide 162] | 11 % of control
CSRGPAAGD [Peptide 3] | 3 % of control
DCDPILPPS [Peptide 172] | 0 % of control
DCHMADMVT [Peptide 150] | 7 % of control
DEVRAGAFE [Peptide 66] | 9 % of control
DLDCDPILP [Peptide 171] | 0 % of control
DNALKVLHN [Peptide 134] | 5 % of control
